Reference: patent publication US20240390468A1 (IMMUNOVACCINE TECHNOLOGIES, published 2024)

What was measured:
[1] = target: T1, MHC class 1 allele A*02:01; test: REVEAL on-rate assay, HLA-A*02:01
T1 construct: also called HLA-A2; HLA-A*02:01

[2] = target: T1, MHC class 1 allele A*02:01; test: REVEAL kinetic score, HLA-A*02:01
[3] = target: T1, MHC class 1 allele A*02:01; test: REVEAL peptide-MHC binding assay, HLA-A*02:01
[4] = target: T1, MHC class 1 allele A*02:01; test: REVEAL R-score, HLA-A*02:01
[5] = target: T1, MHC class 1 allele A*02:01; test: REVEAL off-rate assay, HLA-A*02:01

Binder: FLWGSKAHA (also called p270; M9-A2-270) [MAGE-A9 270 (MAGE-A9 peptide antigen 270, FLWGSKAHA)]
- On-rate T1/2 [1]: 9.43 h
- Kinetic score [2]: 12.7
- REVEAL score [3]: 173
- R-score [4]: 22.1
- Off-rate T1/2 [5]: > 120 h

Binder: ALSVMGVYV (also called p223; M9-A2-223) [MAGE-A9 223 (MAGE-A9 peptide antigen 223, ALSVMGVYV)]
- On-rate T1/2 [1]: 9.17 h
- Kinetic score [2]: 13.1
- REVEAL score [3]: 199
- R-score [4]: 26
- Off-rate T1/2 [5]: > 120 h

Binder: KVAELVHFL (also called p111) [MAGE-A9 111 (MAGE-A9 peptide antigen 111, KVAELVHFL)]
- On-rate T1/2 [1]: 9.52 h
- Kinetic score [2]: 12.6
- REVEAL score [3]: 166
- R-score [4]: 20.9
- Off-rate T1/2 [5]: > 120 h

Binder: LMLGEFLKL [SurA2.M (survivin peptide antigen HLA-A2, LMLGEFLKL)]
- On-rate T1/2 [1]: 9.36 h
- Kinetic score [2]: 12.8
- REVEAL score [3]: 172
- R-score [4]: 22.1
- Off-rate T1/2 [5]: > 120 h
